According to US20240252614A1 (Pfizer, published 2024):

Tests used:
[1] = target: T1, PIV1070 (PIV1); test: BLI, no stress
T1 construct: F113G, F114S, A466I, S473I, G134A
Procedure: (§1) Conformation integrity of PIV1 F protein mutants were evaluated by a thermal stress experiment. Crude cell culture supernatants were normalized based on the results of the titer quantitation and then incubated for 1 hour at room temperature and two higher temperatures. For the initial testing of PIV1 mutants, the two temperatures were 50° C. and 53° C. […] Anti-Human IgG Fc Capture (AHC) biosensors were first equilibrated in PB for before being dipped into more PB to establish the initial baseline. […] The mAb-bound biosensors were then dipped into the thermal stresses cell culture supernatants for 5 minutes.

[2] = target: T2, PIV1 F literature prefusion comparison (PIV1); test: BLI, no stress
T2 construct: F113G, F114S, A466I, S473I (Stewart-Jones et al. 2018)
Procedure: as §1

[3] = target: T3, PIV1069 (PIV1); test: BLI, no stress
T3 construct: F113G, F114S, A466L, S473L, G134A
Procedure: as §1

[4] = target: T4, hMPV138 (hMPV B, UniProt Q6WB98 19-102); test: BLI, 63C stress
T4 construct: T49I, A140C-S149C, A459P
Procedure: (§2) Conformation integrity of hMPV B F protein mutants were evaluated by a thermal stress experiment. Crude cell culture supernatants were normalized based on the results of the titer quantitation and then incubated for 1 hour at room temperature and two higher temperatures. For the testing of hMPV B single mutants, the two temperatures were 53° C. and 56° C. After the incubation, the protein mutants were probed with prefusion specific monoclonal antibody hMPV-2 by OCTET HTX. Anti-Human IgG Fc Capture (AHC) biosensors were first equilibrated in PB before being dipped into more PB for to establish the initial baseline. Biosensors were incubated with hMPV-2 before being equilibrated in PB to establish the experimental baseline. The mAb-bound biosensors were then dipped into the thermal stresses cell culture supernatants for 5 minutes.

[5] = target: T5, hMPV130 (hMPV B, UniProt Q6WB98 19-102); test: BLI, 63C stress
T5 construct: L141C-A161C, G239A, T411C-Q434C, A459P
Procedure: as §2

[6] = target: T6, hMPV120 (hMPV B, UniProt Q6WB98 19-102); test: BLI, 63C stress
T6 construct: A140C-S149C, T411C-Q434C
Procedure: as §2

[7] = target: T7, hMPV136 (hMPV B, UniProt Q6WB98 19-102); test: BLI, 63C stress
T7 construct: A140C-S149C, A459P
Procedure: as §2

[8] = target: T8, hMPV135 (hMPV B, UniProt Q6WB98 19-102); test: BLI, 63C stress
T8 construct: T49I, S149T, A459P
Procedure: as §2

[9] = target: T9, hMPV139 (hMPV B, UniProt Q6WB98 19-102); test: BLI, 63C stress
T9 construct: T49I, L141C-A161C, T411C-Q434C
Procedure: as §2

[10] = target: T10, hMPV126 (hMPV B, UniProt Q6WB98 19-102); test: BLI, 63C stress
T10 construct: T49I, T150C-R156C, G239A, A459P
Procedure: as §2

[11] = target: T11, hMPV144 (hMPV B, UniProt Q6WB98 19-102); test: BLI, 63C stress
T11 construct: T49I, L141C-A161C, S149T, A459P
Procedure: as §2

[12] = target: T12, hMPV134 (hMPV B, UniProt Q6WB98 19-102); test: BLI, 63C stress
T12 construct: T49I, L141C-A161C, S149T, G239A, T365I, T411C-Q434C, A459P
Procedure: as §2

[13] = target: T13, hMPV119 (hMPV B, UniProt Q6WB98 19-102); test: BLI, 63C stress
T13 construct: T49I, T150C-R156C, A459P
Procedure: as §2

[14] = target: T14, hMPV127 (hMPV B, UniProt Q6WB98 19-102); test: BLI, 63C stress
T14 construct: A140C-S149C, G239A, T411C-Q434C, A459P
Procedure: as §2

[15] = target: T15, hMPV122 (hMPV B, UniProt Q6WB98 19-102); test: BLI, 63C stress
T15 construct: A140C-S149C, T411C-Q434C, A459P
Procedure: as §2

[16] = target: T16, hMPV137 (hMPV B, UniProt Q6WB98 19-102); test: BLI, 63C stress
T16 construct: T49I, A140C-S149C
Procedure: as §2

[17] = target: T17, hMPV125 (hMPV B, UniProt Q6WB98 19-102); test: BLI, 63C stress
T17 construct: L141C-A161C, G239A, T411C-Q434C
Procedure: as §2

[18] = target: T18, hMPV121 (hMPV B, UniProt Q6WB98 19-102); test: BLI, 63C stress
T18 construct: L141C-A161C, T411C-Q434C
Procedure: as §2

[19] = target: T19, hMPV123 (hMPV B, UniProt Q6WB98 19-102); test: BLI, 63C stress
T19 construct: A140C-S149C, G239A, T411C-Q434C
Procedure: as §2

[20] = target: T20, hMPV129 (hMPV B, UniProt Q6WB98 19-102); test: BLI, 63C stress
T20 construct: T49I, A140C-S149C, G239A, T365I, T411C-Q434C, A459P
Procedure: as §2

[21] = target: T21, hMPV132 (hMPV B, UniProt Q6WB98 19-102); test: BLI, 63C stress
T21 construct: L141C-A161C, S149T, G239A, T411C-Q434C, A459P
Procedure: as §2

[22] = target: T22, hMPV128 (hMPV B, UniProt Q6WB98 19-102); test: BLI, 63C stress
T22 construct: T49I, A140C-S149C, G239A, T411C-Q434C, A459P
Procedure: as §2

[23] = target: hMPV B F WT Control (hMPV B, UniProt Q6WB98 19-102); test: BLI, 63C stress
Procedure: as §2

[24] = target: T23, hMPV131 (hMPV B, UniProt Q6WB98 19-102); test: BLI, 63C stress
T23 construct: T49I, L141C-A161C, G239A, T411C-Q434C, A459P
Procedure: as §2

[25] = target: T24, hMPV140 (hMPV B, UniProt Q6WB98 19-102); test: BLI, 63C stress
T24 construct: T49I, L141C-A161C, T411C-Q434C, A459P
Procedure: as §2

[26] = target: T25, hMPV124 (hMPV B, UniProt Q6WB98 19-102); test: BLI, 63C stress
T25 construct: L141C-A161C, T411C-Q434C, A459P
Procedure: as §2

[27] = target: T26, hMPV088 (hMPV A, UniProt Q6WB98 19-102); test: BLI, 53C stress
T26 construct: T411C-Q434C, L141C-A161C, G239A
Procedure: (§3) The OCTET HTX (Sartorius, Gottingen, Germany) instrument was used to evaluate the expression and conformational integrity for each mutant. All measurements were conducted at 30° C. temperature in 96-well black plates (Corning, Corning, NY) with a final volume of 240 μL per well at a constant agitation rate of 1000 RPM.
(§4) Conformation integrity of hMPV A F protein mutants were evaluated by thermal stress experiments. Crude cell culture supernatants were normalized based on the results of the titer quantitation and then incubated for 1 hour at room temperature and two higher temperatures. […] Anti-Human IgG Fc Capture (AHC) biosensors were first equilibrated in PB before being dipped into more PB to establish the initial baseline. […] The mAb-bound biosensors were then dipped into the thermal stressed cell culture supernatants for 5 minutes. The kinetics analysis was done by OCTET data analysis software (version 12.0, Sartorius) based on curve fitting of the entire associate step.

[28] = target: T27, hMPV086 (hMPV A, UniProt Q6WB98 19-102); test: BLI, 53C stress
T27 construct: T411C-Q434C, L141C-A161C, T49I; also called hMP0086
Procedure: as §3, §4

[29] = target: T28, hMPV079 (hMPV A, UniProt Q6WB98 19-102); test: BLI, 53C stress
T28 construct: T411C-Q434C, A140C-S149C, A459P
Procedure: as §3, §4

B1: PIV1-8 mAb (antibody, V domains shown)
VH: QVQLVQSGAEVKKPGSSVKVSCEASGGTFSNYVISWVRQAPGQGLEWMGGIIPVFATAKYAQKFQGRVTIIADQSTNTAYLELSSLRSDDTAVYFCASVDSGGTWWDAFAIWGQGTMVTVSS
VL: QAVVTQPRSVSGSPGQAVTISCTGTSSDVGGYNYVSWYQHHPGKAPKLIIYDVTKRPSGVPDRFSGSKSGNTASLTISGLQTEYEADYYCCSYAGSYTLVFGGGTKLTVLG
notes: human IgG1; also called hPIV1-8 mAb; hPIV1-8
- Response Shift [1]: 0.876 nm
- Response Shift [2]: 0.769 nm
- Response Shift [3]: 0.857 nm

B2: hMPV-2 mAb (antibody, V domains shown)
VH: QVQLQQSGAEVKKPGASVKVSCKASGYTFTSYGISWVRQAPGQGLEWMGWISGYNGNTNYAQTFQGTFTMTTDTSTSTAYMELRRLRSGDTAVYYCARDRYYASGSYNGMDVWGQGTTVTVSS
VL: QSALTQPPSASGAPGQRVTVSCSGSSSNVGSSSVYWYQQLPGTAPKLLIYRNNQRPSGVPDRFSGSKSGTSASLAISGLRSEDEADYYCAAWDDSLSGWVFGGGTKLTVLG
notes: human IgG1
- Response Shift [4]: 0.156 nm
- Response Shift [5]: 0.079 nm
- Response Shift [6]: 0.502 nm
- Response Shift [7]: -0.027 nm
- Response Shift [8]: -0.015 nm
- Response Shift [9]: 0.456 nm
- Response Shift [10]: -0.075 nm
- Response Shift [11]: -0.015 nm
- Response Shift [12]: 0.733 nm
- Response Shift [13]: 0.017 nm
- Response Shift [14]: 0.696 nm
- Response Shift [15]: 0.665 nm
- Response Shift [16]: 0.238 nm
- Response Shift [17]: 0.233 nm
- Response Shift [18]: 0.078 nm
- Response Shift [19]: 0.549 nm
- Response Shift [20]: 0.661 nm
- Response Shift [21]: 0.606 nm
- Response Shift [22]: 0.746 nm
- Response Shift [23]: 0.017 nm
- Response Shift [24]: 0.679 nm
- Response Shift [25]: 0.747 nm
- Response Shift [26]: 0.065 nm
- Response Shift [27]: 0.816 nm
- Response Shift [28]: 0.746 nm
- Response Shift [29]: 0.73 nm
